For the assay, the target named is T1, epidermal growth factor receptor (EGFR) (human (endogenous in A-431, DU-145, …, UniProt P00533 25-1210)).
T1 construct: also called ErbB1; HER1
The assay is described as follows: radioligand binding; saturation assay on living A-431 cells; eight concentrations of radiolabeled protein 0.22 to 40 nM, 4 h at 4 °C; nonspecific binding with 50-fold molar excess of unlabeled (HE)3-E01; nonlinear regression. The conditions noted are these: one partner purified.

B1: [^99mTc]Tc-(HE)3-E01 (designed binder)
chain: MRGSHEHEHEGSDLGKKLLEAARAGQDDEVRILMANGADVNADDTWGWTPLHLAAYQGHLEIVEVLLKNGADVNAYDYIGWTPLHLAADGHLEIVEVLLKNGADVNASDYIGDTPLHLAAHNGHLEIVEVLLKHGADVNAQDKFGKTAFDISIDNGNEDLAEILQKLN
modifications: [^99mTc]Tc(CO)3^+ with the (HE)3 tag as a chelator at the N-terminus
notes: DARPin E01 with the N-terminal (HE)3 tag; also called DARPin (HE)3-E01 labeled with [^99mTc]Tc(CO)3; technetium-labeled variant; source: E. coli, purified; labeled with [^99mTc]Tc(CO)3, isolated on NAP-5 size-exclusion column; not shown: (HE)3, N-terminal, kept
For orientation: Kd means the constant that tells how readily two partners part at equilibrium. Read a high Kd as weaker binding. With B1, the equilibrium dissociation constant (Kd) came out at 4.9 ± 0.5 nM.

B2: [^123I]I-(HE)3-E01-PIB (designed binder)
chain: MRGSHEHEHEGSDLGKKLLEAARAGQDDEVRILMANGADVNADDTWGWTPLHLAAYQGHLEIVEVLLKNGADVNAYDYIGWTPLHLAADGHLEIVEVLLKNGADVNASDYIGDTPLHLAAHNGHLEIVEVLLKHGADVNAQDKFGKTAFDISIDNGNEDLAEILQKLN
modifications: [^123I]I-para-iodobenzoate (PIB) conjugated to the N-terminal or one of eight lysine amino groups (site-unspecific)
notes: DARPin E01 with the N-terminal (HE)3 tag; source: E. coli, purified; not shown: (HE)3, N-terminal, kept
Molecule B2 gave a Kd of 2.5 ± 0.5 nM.

These data come from article PMC12609441, “Comparative Preclinical Evaluation of the Tumor-Targeting Properties of Radioiodine and Technetium-Labeled Designed Ankyrin Repeat Proteins for Imaging of Epidermal Growth Factor Receptor Expression in Malignant Tumors” (International Journal of Molecular Sciences, 2025).
